According to publication PMC6103731 (RNA Biology, 2017):
Residue numbers refer to the chain shown, from its start. Numbers in names are those of the source. Blank lines part the entries; values can stand above or below the binder they belong to.

Legend:
[1] = biological target: the molecule itself; test: crystal structure
[2] = biological target: T1, EC1-2 domain of VE-cadherin; test: SPR
T1 sequence (P33151 whole entry, species assumed, looked up): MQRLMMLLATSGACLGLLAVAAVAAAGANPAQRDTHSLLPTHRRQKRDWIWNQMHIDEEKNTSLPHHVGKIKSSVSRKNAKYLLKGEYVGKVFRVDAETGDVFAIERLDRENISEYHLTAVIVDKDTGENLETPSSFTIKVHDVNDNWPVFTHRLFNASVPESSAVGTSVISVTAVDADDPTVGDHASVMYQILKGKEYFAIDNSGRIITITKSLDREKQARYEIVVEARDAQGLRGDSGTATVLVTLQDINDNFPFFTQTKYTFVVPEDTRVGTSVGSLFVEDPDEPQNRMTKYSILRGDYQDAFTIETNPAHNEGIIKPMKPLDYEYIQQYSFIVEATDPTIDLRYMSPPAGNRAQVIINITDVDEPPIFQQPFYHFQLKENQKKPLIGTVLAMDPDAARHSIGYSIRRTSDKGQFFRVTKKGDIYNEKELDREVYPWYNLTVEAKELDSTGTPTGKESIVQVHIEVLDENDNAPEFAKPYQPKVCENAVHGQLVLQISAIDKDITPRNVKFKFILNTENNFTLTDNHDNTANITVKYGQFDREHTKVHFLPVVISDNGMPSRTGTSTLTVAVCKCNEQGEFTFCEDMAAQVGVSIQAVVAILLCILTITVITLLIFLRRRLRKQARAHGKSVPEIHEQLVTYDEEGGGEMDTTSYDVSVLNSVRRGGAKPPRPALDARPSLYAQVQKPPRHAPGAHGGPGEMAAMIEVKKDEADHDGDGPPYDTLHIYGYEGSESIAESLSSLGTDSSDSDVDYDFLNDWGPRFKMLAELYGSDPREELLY

fold stronger binding affinity than WT T2-TrpRS [2]: > 50 fold
kon [2]: 2.71e+07 M⁻¹ s⁻¹
B1: human H130R T2-TrpRS (domain or fragment, UniProt P23381 97-471, looked up)
chain: GIDYDKLIVRFGSSKIDKELINRIERATGQRPHRFLRRGIFFSHRDMNQVLDAYENKKPFYLYTGRGPSSEAMHVGHLIPFIFTKWLQDVFNVPLVIQMTDDEKYLWKDLTLDQAYSYAVENAKDIIACGFDINKTFIFSDLDYMGMSSGFYKNVVKIQKHVTFNQVKGIFGFTDSDCIGKISFPAIQAAPSFSNSFPQIFRDRTDIQCLIPCAIDQDPYFRMTRDVAPRIGYPKPALLHSTFFPALQGAQTKMSASDPNSSIFLTDTAKQIKTKVNKHAFSGGRDTIEEHRQFGGNCDVDVSFMYLTFFLEDDDKLEQIRKDYTSGAMLTGELKKALIEVLQPLIAEHQARRKEVTDEIVKEFMTPRKLSFDFQ
stoichiometry N [1]: 2

kon [2]: 176000 M⁻¹ s⁻¹
B2: wild-type human T2-TrpRS (domain or fragment)
chain: B1 chain with R34H
